Consider 81 substances from the Human Domainome abundance scans (Beltran et al. 2025).

± gives the uncertainty stated by the source.

The nature of the series: abundance fitness (aPCA) (normalised: wild type 0, dead -1); higher = more abundant; growth selection in yeast, the domain comes from the species named. As to conditions: Homo sapiens.
For “BAG family molecular chaperone regulator 3 P24Q, O95817”, the abundance fitness was -0.21 ± 0.14.

Regarding “BAG family molecular chaperone regulator 3 P24R, O95817”, the abundance fitness is -0.037 ± 0.085.

As to “BAG family molecular chaperone regulator 3 P24S, O95817”, the abundance fitness worked out at 0.456 ± 0.099.

For the substance “BAG family molecular chaperone regulator 3 P24T, O95817”, the abundance fitness is -0.036 ± 0.086.

“BAG family molecular chaperone regulator 3 P24V, O95817” registered an abundance fitness of -0.784 ± 0.23.

Take “BAG family molecular chaperone regulator 3 P24W, O95817”: the abundance fitness is -0.659 ± 0.21.

“BAG family molecular chaperone regulator 3 P24Y, O95817” had an abundance fitness of -0.31 ± 0.28.

The substance “BAG family molecular chaperone regulator 3 P32A, O95817” had an abundance fitness of -0.735 ± 0.17.

The substance “BAG family molecular chaperone regulator 3 P32D, O95817” gave an abundance fitness of -0.64 ± 0.39.

For the substance “BAG family molecular chaperone regulator 3 P32E, O95817”, the abundance fitness is -0.285 ± 0.13.

Take “BAG family molecular chaperone regulator 3 P32F, O95817”: the abundance fitness is -0.511 ± 0.47.

With “BAG family molecular chaperone regulator 3 P32G, O95817”, the abundance fitness was 0.335 ± 0.076.

For the substance “BAG family molecular chaperone regulator 3 P32K, O95817”, the abundance fitness was -0.002 ± 0.068.

“BAG family molecular chaperone regulator 3 P32L, O95817”: the abundance fitness is -0.458 ± 0.12.

Consider “BAG family molecular chaperone regulator 3 P32M, O95817”, for which the abundance fitness was -0.766 ± 0.23.

“BAG family molecular chaperone regulator 3 P32N, O95817” gave an abundance fitness of 0.039 ± 0.29.

With “BAG family molecular chaperone regulator 3 P32Q, O95817”, the abundance fitness was -0.205 ± 0.28.

The substance “BAG family molecular chaperone regulator 3 P32R, O95817” registered an abundance fitness of 0.039 ± 0.074.

In turn, “BAG family molecular chaperone regulator 3 P32S, O95817” came in with an abundance fitness of -0.054 ± 0.087.

Regarding “BAG family molecular chaperone regulator 3 P32T, O95817”, the abundance fitness is 0.423 ± 0.071.

In the case of “BAG family molecular chaperone regulator 3 P32V, O95817”, the abundance fitness is -0.268 ± 0.13.

For the substance “BAG family molecular chaperone regulator 3 P32W, O95817”, the abundance fitness was -0.316 ± 0.095.

With “BAG family molecular chaperone regulator 3 P32Y, O95817”, the abundance fitness is -0.23 ± 0.38.

Consider “BAG family molecular chaperone regulator 3 P37A, O95817”, for which the abundance fitness worked out at 0.4 ± 0.12.

On to “BAG family molecular chaperone regulator 3 P37C, O95817”, for which the abundance fitness turned out to be 0.143 ± 0.2.

In turn, “BAG family molecular chaperone regulator 3 P37D, O95817” showed an abundance fitness of 0.447 ± 0.16.

As to “BAG family molecular chaperone regulator 3 P37E, O95817”, the abundance fitness was found to be 0.86 ± 0.092.

As to “BAG family molecular chaperone regulator 3 P37F, O95817”, the abundance fitness is 0.528 ± 0.17.

Turning to “BAG family molecular chaperone regulator 3 P37G, O95817”, the abundance fitness worked out at 0.024 ± 0.084.

Substance “BAG family molecular chaperone regulator 3 P37H, O95817” came in with an abundance fitness of 0.517 ± 0.18.

“BAG family molecular chaperone regulator 3 P37I, O95817” showed an abundance fitness of 0.485 ± 0.08.

In turn, “BAG family molecular chaperone regulator 3 P37K, O95817” showed an abundance fitness of 0.937 ± 0.12.

As for “BAG family molecular chaperone regulator 3 P37L, O95817”, the abundance fitness came to 0.128 ± 0.067.

In turn, “BAG family molecular chaperone regulator 3 P37M, O95817” had an abundance fitness of 0.465 ± 0.12.

Regarding “BAG family molecular chaperone regulator 3 P37N, O95817”, the abundance fitness was 0.448 ± 0.2.

Substance “BAG family molecular chaperone regulator 3 P37Q, O95817” yielded an abundance fitness of 0.24 ± 0.16.

In the case of “BAG family molecular chaperone regulator 3 P37R, O95817”, the abundance fitness was 0.857 ± 0.077.

In turn, “BAG family molecular chaperone regulator 3 P37S, O95817” returned an abundance fitness of 0.7 ± 0.072.

Turning to “BAG family molecular chaperone regulator 3 P37T, O95817”, the abundance fitness came to 0.898 ± 0.11.

“BAG family molecular chaperone regulator 3 P37V, O95817” showed an abundance fitness of 0.358 ± 0.079.

For the substance “BAG family molecular chaperone regulator 3 P37W, O95817”, the abundance fitness turned out to be 0.115 ± 0.086.

In turn, “BAG family molecular chaperone regulator 3 P37Y, O95817” returned an abundance fitness of 0.573 ± 0.18.

Consider “BAG family molecular chaperone regulator 3 P52A, O95817”, for which the abundance fitness was -0.727 ± 0.16.

In turn, “BAG family molecular chaperone regulator 3 P52C, O95817” had an abundance fitness of -0.092 ± 0.3.

In turn, “BAG family molecular chaperone regulator 3 P52D, O95817” came in with an abundance fitness of -0.542 ± 0.42.

“BAG family molecular chaperone regulator 3 P52E, O95817” yielded an abundance fitness of -0.948 ± 0.38.

“BAG family molecular chaperone regulator 3 P52G, O95817” gave an abundance fitness of -0.389 ± 0.1.

The substance “BAG family molecular chaperone regulator 3 P52H, O95817” returned an abundance fitness of -0.542 ± 0.48.

In the case of “BAG family molecular chaperone regulator 3 P52K, O95817”, the abundance fitness was -0.039 ± 0.22.

The substance “BAG family molecular chaperone regulator 3 P52L, O95817” yielded an abundance fitness of -0.741 ± 0.12.

“BAG family molecular chaperone regulator 3 P52M, O95817” yielded an abundance fitness of -1.07 ± 0.46.

“BAG family molecular chaperone regulator 3 P52R, O95817” returned an abundance fitness of -0.633 ± 0.12.

Consider “BAG family molecular chaperone regulator 3 P52S, O95817”, for which the abundance fitness was -0.303 ± 0.11.

“BAG family molecular chaperone regulator 3 P52T, O95817”: the abundance fitness was -1.12 ± 0.39.

Take “BAG family molecular chaperone regulator 3 P52W, O95817”: the abundance fitness is -0.837 ± 0.22.

“BAG family molecular chaperone regulator 3 P55A, O95817” displayed an abundance fitness of 0.013 ± 0.078.

In the case of “BAG family molecular chaperone regulator 3 P55C, O95817”, the abundance fitness was 0.133 ± 0.29.

“BAG family molecular chaperone regulator 3 P55D, O95817” came in with an abundance fitness of -0.281 ± 0.39.

“BAG family molecular chaperone regulator 3 P55E, O95817”: the abundance fitness is -0.8 ± 0.36.

“BAG family molecular chaperone regulator 3 P55F, O95817” gave an abundance fitness of -0.012 ± 0.13.

In turn, “BAG family molecular chaperone regulator 3 P55H, O95817” returned an abundance fitness of -0.636 ± 0.46.

With “BAG family molecular chaperone regulator 3 P55I, O95817”, the abundance fitness is 0.135 ± 0.16.

The substance “BAG family molecular chaperone regulator 3 P55K, O95817” showed an abundance fitness of -0.094 ± 0.12.

Regarding “BAG family molecular chaperone regulator 3 P55L, O95817”, the abundance fitness is -0.133 ± 0.095.

“BAG family molecular chaperone regulator 3 P55M, O95817”: the abundance fitness was -0.356 ± 0.2.

In turn, “BAG family molecular chaperone regulator 3 P55Q, O95817” yielded an abundance fitness of 0.081 ± 0.19.

“BAG family molecular chaperone regulator 3 P55R, O95817” gave an abundance fitness of -0.306 ± 0.11.

Substance “BAG family molecular chaperone regulator 3 P55S, O95817” registered an abundance fitness of 0.153 ± 0.17.

“BAG family molecular chaperone regulator 3 P55T, O95817” displayed an abundance fitness of -0.427 ± 0.23.

In turn, “BAG family molecular chaperone regulator 3 P55W, O95817” came in with an abundance fitness of -0.508 ± 0.28.

The substance “BAG family molecular chaperone regulator 3 P55Y, O95817” came in with an abundance fitness of -0.018 ± 0.29.

“BAG family molecular chaperone regulator 3 P59V, O95817” came in with an abundance fitness of 0.263 ± 0.34.

Turning to “BAG family molecular chaperone regulator 3 Q11A, O95817”, the abundance fitness came out at 0.495 ± 0.34.

For the substance “BAG family molecular chaperone regulator 3 Q11D, O95817”, the abundance fitness is -0.046 ± 0.4.

“BAG family molecular chaperone regulator 3 Q11G, O95817” returned an abundance fitness of 0.771 ± 0.065.

The substance “BAG family molecular chaperone regulator 3 Q11H, O95817” yielded an abundance fitness of -0.246 ± 0.26.

In the case of “BAG family molecular chaperone regulator 3 Q11K, O95817”, the abundance fitness turned out to be 1.01 ± 0.19.

For “BAG family molecular chaperone regulator 3 Q11L, O95817”, the abundance fitness is -0.227 ± 0.32.

Take “BAG family molecular chaperone regulator 3 Q11M, O95817”: the abundance fitness is 1.03 ± 0.39.

Regarding “BAG family molecular chaperone regulator 3 Q11P, O95817”, the abundance fitness is -0.132 ± 0.41.

“BAG family molecular chaperone regulator 3 Q11R, O95817” came in with an abundance fitness of 0.463 ± 0.11.
